One assay concerns 4T1 breast cancer cells. As to the kind of experiment: 4T1 breast cancer model, ADG106 with docetaxel. The format is in vivo, BALB/c mice. The conditions noted are these: 5 mg/kg; ADG106 i.p. twice a week 4 doses, Docetaxel i.v. once a week 3 doses. An excerpt:
Tumor growth was monitored twice weekly and is reported as mean tumor volume ±SEM over time.

The subject of a further assay is Lewis lung cancer cells. As to the kind of experiment: Lewis lung cancer model, ADG106 with cisplatin. The following applies: 5 mg/kg i.p. In kind it is in vivo, C57BL/6 mice.
For a further assay, the system named is LLC-CD20 cells. As to the kind of experiment: LLC-CD20 lung cancer model, ADG106 with rituximab. In kind it is in vivo, C57BL/6 mice. The following applies: 10 mg/kg i.p. twice a week for 3 weeks.
Assay [1] concerns the target T1, CD137 (Homo sapiens, UniProt Q07011). As to the kind of experiment: Binding affinity (KD) by surface plasmon resonance (SPR). The following applies: read-out: binding affinity (KD). Background: Surface plasmon resonance follows binding to a sensor surface in real time, without labels.
In assay [2] the target is T1, CD137. As to the kind of experiment: Receptor occupancy calculated from drug plasma concentration and KD. The following applies: 0.1 mg/kg, MTD for Urelumab.
The target of assay [3] is T1, CD137. As to the kind of experiment: Cellular NFκB reporter gene assay (CD137-expressing NFκB-Luc Jurkat reporter cells). Set-up: expressed in transfected cells; host or cells: NFκB-Luc Jurkat reporter cells (with or without co-cultured CHO-K1 cells expressing human FcγRIIb). The format is cell-based. How it is done:
The CD137-expressing NFκB-Luc Jurkat reporter cells were stimulated with the anti-CD137 antibodies in the absence (left panel) or presence (right panel) of co-cultured CHO-K1 cell expressing human FcγRIIb. Luciferase activity was measured by bioluminescence assay.
In general terms: In a reporter assay the amount or activity of a reporter protein is the signal.

In general, Kd refers to the free concentration of one partner at which half of the binding sites on the other are occupied at equilibrium, for simple one-to-one binding.

T1 sequence (Q07011 24-255): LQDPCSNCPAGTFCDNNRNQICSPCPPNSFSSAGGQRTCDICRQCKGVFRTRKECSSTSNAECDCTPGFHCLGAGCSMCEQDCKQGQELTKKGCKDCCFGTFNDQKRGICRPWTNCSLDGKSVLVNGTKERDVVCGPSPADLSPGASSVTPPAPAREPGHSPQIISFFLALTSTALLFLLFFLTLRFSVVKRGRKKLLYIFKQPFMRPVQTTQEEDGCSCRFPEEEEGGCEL
Source text for LLC-CD20 cells: C57BL/6 mice (n=6 per group, female, 6-8 weeks old) were transplanted subcutaneously with 5×10^5 LLC-CD20 cells, a Lewis lung cancer cell line expressing CD20. […] Tumor growth was monitored twice weekly and reported as mean tumor volume ±SEM over time.
Source text for Lewis lung cancer cells: C57BL/6 mice (n=8 per group, female, 6-8 weeks old) were transplanted subcutaneously with 5×10^5 Lewis lung cancer cells. […] Tumor growth was monitored twice weekly and reported as mean tumor volume ±SEM over time.

On to `CC(=O)O[C@@]12CO[C@@H]1C[C@H](O)[C@@]1(C)C(=O)[C@H](O)C3=C(C)[C@@H](OC(=O)[C@H](O)[C@@H](NC(=O)OC(C)(C)C)c4ccccc4)C[C@@](O)([C@@H](OC(=O)c4ccccc4)[C@H]21)C3(C)C` [Docetaxel, docetaxel, reference compound], for which, in the assay with 4T1 breast cancer cells, the “anti-tumor activity, mono-therapy” value is reported as “marginal anti-tumor activity”.
Consider `N.N.[Cl][Pt][Cl]` [cisplatin, reference compound], for which the “anti-tumor activity, monotherapy” value in the assay on Lewis lung cancer cells is “showed anti-tumor activity”.
Regarding “Rituximab: anti-CD20 antibody [reference compound]”, in the assay with LLC-CD20 cells, the “tumor growth, single agent” value is recorded as “only weakly inhibited tumor growth”.
Take “Urelumab: clinical reference anti-CD137 mAb [reference compound]”: the Kd with CD137 [1] was 9.6 nM. For the same compound, the “Calculated Receptor Occupancy” value in the assay with CD137 [2] was 64%. For the same compound, the “human CD137 agonism without crosslinking” value with CD137 [3] (no crosslinking) was “function as a human CD137 agonist without crosslinking”. For the same compound, in the assay with CD137 [3] (with crosslinking), the “human CD137 agonism following crosslinking” value is recorded as “function as agonists”.

These data come from patent US20230133118A1, “COMPOSITIONS AND METHODS FOR TREATING CANCER” (Adagene AG, priority 2020, published 2023).
